Values quoted from earlier work, collected in article PMC3415683.

Target: Dll-1 DSL-EGF3 (Homo sapiens) (UniProt O00548)
Assay: SPR

UniProt O00548, sequence (O00548 177-325): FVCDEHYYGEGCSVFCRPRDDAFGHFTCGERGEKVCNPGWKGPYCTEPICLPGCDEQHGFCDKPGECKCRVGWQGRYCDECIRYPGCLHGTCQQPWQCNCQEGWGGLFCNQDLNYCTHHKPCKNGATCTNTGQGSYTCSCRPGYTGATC

- Kd: 130 µM
Substance: Notch1 EGF11-14 (from UniProt P46531)
